According to PMC2963168, “Identification, Cloning, and Characterization of L-Phenylserine Dehydrogenase from Pseudomonas syringae NK-15” (Enzyme Research, 2010):
One block for each molecule: values may come before it.

Tests used:
[1] = target: L-phenylserine dehydrogenase (ORF3) from Pseudomonas syringae NK-15 (Pseudomonas syringae NK-15); test: SEC; HPLC gel filtration on a TSK-GEL G3000SW column (0.75 x 60 cm) at room temperature, 0.1 M potassium phosphate buffer (pH 7.0) with 0.2 M NaCl, 0.7 ml/min; native mass 98 kDa against a subunit of 27 kDa by SDS-PAGE
purified protein [2] = substrate: NC(C(=O)O)C(O)c1ccccc1; test: purified protein; type: biochemical, Pseudomonas syringae; details: NAD+ as co-substrate, 0.2 M glycine-KCl-KOH pH 10.5, 30°C (standard assay), racemic DL-threo substrate
purified protein [3] = substrate: NC(=O)c1ccc[n+]([C@@H]2O[C@H](COP(=O)(O)OP(=O)(O)OC[C@H]3O[C@@H](n4cnc5c(N)ncnc54)[C@H](O)[C@@H]3O)[C@@H](O)[C@H]2O)c1; test: purified protein; type: biochemical, Pseudomonas syringae; details: DL-threo-β-phenylserine as co-substrate, 0.2 M glycine-KCl-KOH pH 10.5, 30°C (standard assay), varied: cofactor

stoichiometry N [1]: 4
Molecule: L-phenylserine dehydrogenase (ORF3) from Pseudomonas syringae NK-15 (enzyme)

B1: L-phenylserine dehydrogenase (ORF3; L-PSDH) (Pseudomonas syringae) (protein)
chain: MSFPVCLVTGAATGIGAATALRFARDGWGVAINNFDDSTRADAERVAAQCREAGAQTLVIDADVGDDGACRRMVEQVAAQWGRIDALVNSAGTTRVIPHSDFEAIDPDEFERIYRVNLIGMFQMTRAATPLLRESFCPGHFASVLHVSSLASLYGTGLHPAYAASKGAVNSLTLSLARNLAPLVRVNAIAPGMVDDGLLRRVLGDEADGRVVESMRENAPLKRVSQPAEIAELAWFLAAHAPAMTGQVLAIENGLLLNT
notes: 98 kDa native, probably homotetramer; AB499092 is the 9,246-bp operon entry, which also holds D-phenylserine dehydrogenase (orf5)
Km (purified protein [2]): 59 mM
Km (purified protein [3]): 2.1 mM
